Laboratory results as given in FireProtDB (doi:10.1016/j.jmb.2006.03.027).
Several values for one entry are separate records, joined by “and”; a condition that tells them apart may be missing. Equal entries are not always repeated.

Details: Saccharomyces cerevisiae (strain ATCC 204508 / S288c); pH 7; Thermal; CD; potassium phosphate 25 mM; reversible: Yes; whole UniProt chain shown

B1: GrpE protein homolog, mitochondrial wild type, P38523 (protein)
chain: MRAFSAATVRATTRKSFIPMAPRTPFVTPSFTKNVGSMRRMRFYSDEAKSEESKENNEDLTEEQSEIKKLESQLSAKTKEASELKDRLLRSVADFRNLQQVTKKDIQKAKDFALQKFAKDLLESVDNFGHALNAFKEEDLQKSKEISDLYTGVRMTRDVFENTLRKHGIEKLDPLGEPFDPNKHEATFELPQPDKEPGTVFHVQQLGFTLNDRVIRPAKVGIVKGEEN
- Tm: 53.2 °C and 52.5 °C and 52.4 °C
